Measured values: patent publication US7556938B1, “Nucleic acids encoding potassium channel interactors” (Millennium Pharmaceuticals, Inc., priority 1998, dated 2009)

What was measured:
rKv4.2 = molecular target: T1, rKv4.2 (Rattus norvegicus, UniProt Q63881); experiment: Patch-clamp of Kv4.2 currents in CHO cells coexpressing KChIPs; assay type: cell-based
T1 construct: expressed in transfected cells; host or cells: CHO cells, transient transfection with GFP co-transfected
T1 sequence (Q63881 1-630): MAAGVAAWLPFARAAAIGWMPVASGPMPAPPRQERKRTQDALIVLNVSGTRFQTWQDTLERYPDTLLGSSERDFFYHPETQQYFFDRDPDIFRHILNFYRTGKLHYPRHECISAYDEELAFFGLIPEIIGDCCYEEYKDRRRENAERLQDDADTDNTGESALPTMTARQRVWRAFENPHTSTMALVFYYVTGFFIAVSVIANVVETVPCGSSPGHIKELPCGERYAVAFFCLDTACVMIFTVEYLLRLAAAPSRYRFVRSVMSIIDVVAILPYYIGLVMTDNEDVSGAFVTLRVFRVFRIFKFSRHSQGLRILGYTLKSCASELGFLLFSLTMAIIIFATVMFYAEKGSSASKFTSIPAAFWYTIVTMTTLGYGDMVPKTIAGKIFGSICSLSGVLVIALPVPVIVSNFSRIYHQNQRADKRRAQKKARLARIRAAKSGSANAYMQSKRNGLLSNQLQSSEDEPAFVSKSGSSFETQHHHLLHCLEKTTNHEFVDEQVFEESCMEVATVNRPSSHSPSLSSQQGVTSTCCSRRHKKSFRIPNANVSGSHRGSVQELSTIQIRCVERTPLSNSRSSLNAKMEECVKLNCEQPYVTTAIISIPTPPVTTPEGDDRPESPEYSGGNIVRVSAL
Experimental: HEK 293 and CHO cells were used for recordings 1-3 days after a transient transfection. Whole-cell currents were recorded from cells expressing GFP, identified by their green fluorescence. […] After Gigaseal and ruptured whole-cell configuration access, resistance was less than 10 MOhms. Whole-cell bath solutions were made from a 10× Hank's balanced salt solution (GibcoBRL) with the following final concentration (in mM): 138 NaCl, 5.4 KCl, 1.3 MgCl2, 1.3 CaCl2, 5.5 D-Glukos and 10 HEPES, pH 7.4. The intracellular electrode solution consisted of (in mM) 140 KCl, 10 HEPES, 10 EGTA, 0.5 MgCl2, pH 7.3. All chemicals were from Sigma (St. Louis, Mo.) or Fisher Scientific (Houston, Tex.). Membrane currents were recorded using a EPC9 patch-clamp amplifier (HEKA, Germany). Data were analyzed using Matlab (Natick, Ma), and leak subtracted if necessary. All experiments were done at room temperature.
Because PCIPs, e.g., KChIP1 (1v), KChIP2 (9ql), and KChIP3 (p19), colocalize and coassociate with Kv4 α-subunits in brain, another critical question was to determine whether these PCIPs alter the conductance properties of Kv4 channels. To address this issue, Kv4.2 and Kv4.3 were expressed alone and in combination with individual PCIPs. CHO cells were transiently-transfected with cDNA using the DOTAP lipofection method as described by the manufacturer (Boehringer Mannheim, Inc.). Transfected cells were identified by cotransfecting enhanced GFP along with the genes of interest and subsequently determining if the cells contained green GFP fluorescence. Currents in CHO cells were measured using the patch-clamp technique (Hamill et al. 1981. Pfluegers Arch. 391: 85-100).
First, the amplitude of the Kv4.2 current increased approximately 7.5 fold in the presence of KChIP1 (amplitude of Kv4.2 alone=0.60+/−0.096 nA/cell; Kv4.2+KChIP1=4.5+/−0.55 nA/cell). […] Finally, the kinetics of Kv4.2 inactivation slowed considerably when Kv4.2 was coexpressed with KChIP1 (inactivation time constant of Kv4.2 alone=28.2+/−2.6 ms; Kv4.2+KChIP1=104.1+/−10.4 ms), while channels recovered from inactivation much more rapidly in cells expressing both Kv4.2 and KChIP1 (recovery tau=53.6+/−7.6 ms) versus cells expressing Kv4.2 alone (recovery tau=272.2+/−26.1 ms).

rKv4.3 = experiment: Two-electrode voltage clamp of Kv4.3 currents in Xenopus oocytes co-injected with KChIP cRNA; assay type: cell-based, rat
Sequence of rKv4.3 (Q62897 1-487 limits assumed): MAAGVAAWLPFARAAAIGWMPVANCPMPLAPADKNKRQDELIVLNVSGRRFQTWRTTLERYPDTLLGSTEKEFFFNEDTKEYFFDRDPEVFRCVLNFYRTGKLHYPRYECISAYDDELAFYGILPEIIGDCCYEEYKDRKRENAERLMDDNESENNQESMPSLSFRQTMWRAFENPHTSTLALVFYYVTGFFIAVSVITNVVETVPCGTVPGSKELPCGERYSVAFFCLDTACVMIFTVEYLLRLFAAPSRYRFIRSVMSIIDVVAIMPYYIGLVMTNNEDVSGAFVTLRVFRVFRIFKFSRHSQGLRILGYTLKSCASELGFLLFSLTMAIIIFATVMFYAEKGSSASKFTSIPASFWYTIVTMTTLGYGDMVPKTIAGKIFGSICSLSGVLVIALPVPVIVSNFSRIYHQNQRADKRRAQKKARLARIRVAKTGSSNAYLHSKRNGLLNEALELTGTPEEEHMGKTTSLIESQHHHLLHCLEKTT
Experimental: (§1) Frogs underwent no more than two surgeries and surgeries were performed by well established techniques. Frogs were anesthetized with ice. Total cRNA (1-10 ng) was injected into stage IV Xenopus oocytes that were harvested the previous day. The Xenopus oocytes were incubated in ND96 containing (in mM) 96 NaCl, 2 KCl, 1.8 CaCl2, 1 MgCl2, 5 HEPES, pH 7.6, plus (Gentamycin 50 μg/ml) at 18° C. Xenopus oocytes were studied 3-7 days after injection. The two-electrode voltage-clamp recordings were performed in ND96 solution using a TURBO TEC 03 Clamp Amplifier (ALA Scientific Instruments, Westbury, N.Y.). Both electrodes were filled with 3 M KCl and had electrode resistances ranging from 0.2-1 MOhm. The current signals were filtered at 1000 Hz before transferred on a PC (Gateway, Calif.) using the PULSE software (HEKA, Germany).
(§2) To investigate whether the modulatory effects of these KChIPs are specific for Kv4 channels, KChIP1 was coexpressed with Kv1.4 and Kv2.1 in Xenopus oocytes. Xenopus oocytes were injected with 1-3 ng/oocyte of cRNA which was prepared using standard in vitro transcription techniques (Sambrook et al. 1989. Molecular Cloning: a laboratory manual, Cold Spring Harbor Press). Currents in Xenopus oocytes were measured with a two-electrode voltage clamp. […] As a final control for the KChIP effects and to verify that the KChIPs' effects on Kv4 currents are independent of expression system, the above kinetic analyses were repeated after expressing Kv4.3 and KChIP mRNAs in Xenopus oocytes. The effects KChIP1 on for Kv4.3 in the Xenopus oocyte system were strikingly similar to those on Kv4.2 in CHO cells (Table 1).

hKv1.4 = hKv1.4 (Homo sapiens, UniProt P22459); experiment: Two-electrode voltage clamp of Kv1.4 currents in Xenopus oocytes coexpressing 1v; assay type: cell-based
Sequence of hKv1.4 (P22459 whole entry): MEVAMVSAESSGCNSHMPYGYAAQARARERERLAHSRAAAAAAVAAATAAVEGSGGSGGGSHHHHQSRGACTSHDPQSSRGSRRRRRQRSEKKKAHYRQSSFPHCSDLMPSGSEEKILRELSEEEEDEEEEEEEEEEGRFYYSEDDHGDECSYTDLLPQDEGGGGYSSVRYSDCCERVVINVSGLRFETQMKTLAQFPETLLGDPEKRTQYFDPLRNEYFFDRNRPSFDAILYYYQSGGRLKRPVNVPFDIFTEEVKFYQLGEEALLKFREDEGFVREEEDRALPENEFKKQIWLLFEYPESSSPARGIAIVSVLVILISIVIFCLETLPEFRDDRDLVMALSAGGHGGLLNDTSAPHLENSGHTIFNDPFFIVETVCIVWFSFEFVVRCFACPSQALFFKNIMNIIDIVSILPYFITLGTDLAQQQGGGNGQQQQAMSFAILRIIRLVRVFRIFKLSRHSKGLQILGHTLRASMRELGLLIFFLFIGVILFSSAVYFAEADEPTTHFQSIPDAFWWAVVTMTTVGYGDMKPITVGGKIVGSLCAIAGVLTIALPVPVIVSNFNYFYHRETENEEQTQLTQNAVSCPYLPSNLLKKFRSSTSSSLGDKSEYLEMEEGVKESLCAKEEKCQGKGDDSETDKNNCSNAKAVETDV
Experimental: as §1, §2

[1] = rKv4.2 coexpressed with the KChIP, at 50 mV
[2] = Kv4.3 co-expressed with the KChIP

B1: KChIP1: Potassium channel interacting protein 1v, a Ca2+-binding protein that binds and modulates Kv4 channels (protein)
chain: MPARVLLAYPGTEMLTQGESEGLQTLGIVVVLCSSLKLLHYLGLIDLSDDKIEDDLEMTMVCHRPEGLEQLEAQTNFTKRELQVLYRGFKNECPSGVVNEETFKQIYAQFFPHGDASTYAHYLFNAFDTTQTGSVKFEDFVTALSILLRGTVHEKLRWTFNLYDINKDGYINKEEMMDIVKAIYDMMGKYTYPVLKEDTPRQHVDVFFQKMDKNKDGIVTLDEFLESCQEDDNIMRSLQLFQNVM
Q: B1 was tested. Which “activation V1/2” value (rKv4.2; Kv4.2 coexpressed with KChIP1) did it give?
A: −12.1+/−1.4 mV

Q: And the “Inactivation time constant (ms, at 50 mV)” value (rKv4.2; [1])?
A: 104.1 ± 10.4 ms

Q: What about the “Peak Current (nA/cell at 50 MV)” value (rKv4.2; [1]) of the same molecule?
A: 4.5+/−0.55 nA/cell

Q: What about the “Peak Current Density (pA/pF at 50 mV)” value (rKv4.2; [1]) of the same molecule?
A: 306.9+/−57.9 pA/pF

Q: And the “fold increase of Kv4.2 current amplitude” value (rKv4.2; versus Kv4.2 alone)?
A: approximately 7.5 fold

Q: What about the “fold increase of Kv4.2 current density” value (rKv4.2; versus Kv4.2 alone) of the same molecule?
A: 12 fold

Q: And the “Inactivation time constant (ms ± SEM)” value (rKv4.3; [2])?
A: 112 ± 3 ms

Q: What about the “Peak amplitude (μA ± SEM)” value (rKv4.3; [2]) of the same molecule?
A: 59 ± 5 μA

Q: And the “Inactivation time constant (ms, at 50 mV)” value (rKv4.3; rKv4.3 + KChIP1, at 50 mV)?
A: 135.0 ± 15.1 ms

Q: And the “Peak Current” value (rKv4.3; rKv4.3 + KChIP1, at 50 mV, unit μA printed in cell)?
A: 18.1 μA* ± 3.8

Q: What about the “fold increase of inactivation time constant of Kv4.3” value (rKv4.3; versus Kv4.3 alone) of the same molecule?
A: ~2 fold

Q: And the “effect on Kv1.4 currents” value (hKv1.4)?
A: did not appear to have any effect

Q: And the “Activation V1/2 (mV)” value (hKv1.4; hKv1.4 + 1v)?
A: −20.9 mV

Q: What about the “Steady-state Inactivation V1/2 (mV)” value (hKv1.4; hKv1.4 + 1v) of the same molecule?
A: −47.5 mV

Q: What about the “Inactivation time constant (ms, at 50 mV)” value (hKv1.4; hKv1.4 + 1v, at 50 mV) of the same molecule?
A: 58.2 ± 6.6 ms

Q: What about the “Peak Current (μA/cell at 50 MV)” value (hKv1.4; hKv1.4 + 1v, at 50 mV) of the same molecule?
A: 6.5 ± 0.64 μA/cell
